Data on 2 substances can be found in PMC7948958.

In test [1] the target is rabbit skeletal actin filaments (rabbit) (UniProt P68135).
Test [2] deals with pyrene-labeled rabbit skeletal actin filaments (rabbit) (UniProt P68135). In words: other fluorescence titration; stopped-flow, quenching of pyrene-actin fluorescence; 0.05-0.3 μM EGFP-M15-2IQ mixed with 0.5-3 μM pyrene actin; nucleotide-free (apyrase-treated); apparent rate constants from linear fit of kobs against [actin], KD calculated as k-6/k+6; 20-mM Mops (pH 7.0), 100-mM KCl, 5-mM MgCl2, 0.1-mM EGTA, 20 °C.

Test [3] concerns the target rabbit skeletal actin filaments (rabbit) (UniProt P68135). The source holds these as a separate data set.
Test [4] deals with pyrene-labeled rabbit skeletal actin filaments (rabbit) (UniProt P68135). In words: other fluorescence titration; stopped-flow, quenching of pyrene-actin fluorescence; 0.05-0.3 μM EGFP-M15-2IQ mixed with 0.5-3 μM pyrene actin; with saturating ADP (0.5 mM in the text, 1 mM in the legend), apyrase omitted; apparent rate constants from linear fit of kobs against [actin], KD …; 20-mM Mops (pH 7.0), 100-mM KCl, 5-mM MgCl2, 0.1-mM EGTA, 20 °C.

By koff is commonly meant the rate constant with which the complex falls apart. One may read the kon as the second-order rate constant of association. Turning to “EGFP-M15-2IQ motor domain complex (EGFP-M15-2IQ:ELC:RLC) (from UniProt Q9QZZ4-3 1-743; P60661 1-151)”, in test [1], the actin-activated steady-state ATPase (NADH assay, 10-mM KCl, 20 °C), K ATPase; myosin from Sf9 coexpressing UNC45A (baculovirus) was 0.0061 mM and the actin-activated steady-state ATPase (NADH assay, 10-mM KCl, 20 °C), K ATPase; myosin from Sf9 coexpressing UNC45B (baculovirus) was 0.0104 mM. Besides, in test [2], the Kd was 200 nM, the koff is 0.65 s⁻¹ and the kon was 3.18e+06 M⁻¹ s⁻¹. The actin-activated phosphate release (double-mixing stopped flow, MDCC-PbP), apparent association rate constant K9·k′+4 of M·ADP·Pi with actin, from the fast phase against [actin] up to 50 μM in test [3] turned out to be 130000 M⁻¹ s⁻¹. For the same substance, in test [4], the Kd amounted to 310 nM, the koff amounted to 0.55 s⁻¹ and the kon is 1.75e+06 M⁻¹ s⁻¹.

Turning to “M15-2IQ-EGFP motor domain complex (M15-2IQ-EGFP:ELC:RLC) (from UniProt Q9QZZ4-3 1-743; P60661 1-151)”, in test [1], the actin-activated steady-state ATPase (NADH assay, 10-mM KCl, 20 °C), K ATPase; myosin from the Sf9-UNC45A cell line was 0.0052 mM and the actin-activated steady-state ATPase (NADH assay, 10-mM KCl, 20 °C), K ATPase; myosin from the Sf9-UNC45B cell line came out at 0.007 mM.
